US20170101472A1 (Regeneron, published 2017)

T1: recombinant human LAG3 expressed with a C-terminal mouse IgG2a mFc tag (human)
T1 construct: Called dimeric; also called hLAG3-mFc; hLAG3 dimer
T1 chain: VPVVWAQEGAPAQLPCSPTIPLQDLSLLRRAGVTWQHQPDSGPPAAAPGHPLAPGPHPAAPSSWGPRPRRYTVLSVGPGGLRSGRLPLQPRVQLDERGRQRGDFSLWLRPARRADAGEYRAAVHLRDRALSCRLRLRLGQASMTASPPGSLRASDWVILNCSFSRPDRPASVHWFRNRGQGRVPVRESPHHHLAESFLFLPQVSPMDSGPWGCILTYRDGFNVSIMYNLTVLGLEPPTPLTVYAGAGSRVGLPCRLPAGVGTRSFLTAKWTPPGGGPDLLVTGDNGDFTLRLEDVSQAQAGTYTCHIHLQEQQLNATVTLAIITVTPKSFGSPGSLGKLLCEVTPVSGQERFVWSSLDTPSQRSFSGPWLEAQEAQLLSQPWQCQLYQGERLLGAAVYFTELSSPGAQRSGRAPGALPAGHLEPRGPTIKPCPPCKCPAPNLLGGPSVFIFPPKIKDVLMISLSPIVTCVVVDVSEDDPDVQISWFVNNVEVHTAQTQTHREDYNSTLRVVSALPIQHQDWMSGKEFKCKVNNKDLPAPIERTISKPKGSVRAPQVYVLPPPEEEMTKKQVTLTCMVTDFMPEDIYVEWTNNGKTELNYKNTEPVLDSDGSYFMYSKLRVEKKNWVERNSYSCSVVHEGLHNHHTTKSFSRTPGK

T2: human LAG3 expressed on HEK293 cells (human, UniProt P18627 23-525)
T2 construct: also called hLAG3; HEK293/hLAG3
T2 sequence: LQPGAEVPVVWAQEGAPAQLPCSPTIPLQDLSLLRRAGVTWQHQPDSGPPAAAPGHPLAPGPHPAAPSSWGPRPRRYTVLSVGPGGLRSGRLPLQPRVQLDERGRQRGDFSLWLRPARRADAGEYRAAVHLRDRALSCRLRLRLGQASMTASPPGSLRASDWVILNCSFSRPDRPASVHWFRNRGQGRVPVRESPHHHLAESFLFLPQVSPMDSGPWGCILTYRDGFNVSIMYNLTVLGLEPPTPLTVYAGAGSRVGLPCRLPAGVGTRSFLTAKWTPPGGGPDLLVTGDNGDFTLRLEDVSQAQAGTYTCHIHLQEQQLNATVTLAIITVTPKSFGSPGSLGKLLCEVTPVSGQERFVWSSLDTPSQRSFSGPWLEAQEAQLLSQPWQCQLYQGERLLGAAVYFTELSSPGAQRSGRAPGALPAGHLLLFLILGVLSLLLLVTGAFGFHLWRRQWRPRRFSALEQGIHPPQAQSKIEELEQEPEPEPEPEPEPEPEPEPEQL


Tests used:
[1] = target: T3, recombinant human LAG3 expressed with a C-terminal myc-myc-hexahistidine tag (human, UniProt P18627 29-450); assay: SPR, mAb captured, 25 C
T3 construct: also called hLAG3-mmh; hLAG3.mmh
Method: (§1) The BiaCore sensor surface was derivatized with either a polyclonal rabbit anti-mouse antibody (GE, # BR-1008-38) or with a monoclonal mouse anti-human Fc antibody (GE, # BR-1008-39) to capture approximately 50-85 RUs of anti-LAG3 monoclonal antibodies, expressed with either a mouse Fc or a human Fc, respectively. […] The binding of the LAG3 reagents to captured monoclonal antibodies was monitored for 4 minutes while their dissociation from the antibodies was monitored for 8 minutes in HBST running buffer (0.01 M HEPES pH 7.4, 0.15 M NaCl, 3 mM EDTA, 0.05% v/v Surfactant P20). Experiments were performed at 25° C. and 37° C. Kinetic association (kₐ) and dissociation (kd) rate constants were determined by processing and fitting the data to a 1:1 binding model using Scrubber 2.0c curve fitting software. Binding dissociation equilibrium constants (KD) and dissociative half-lives (t_{1/2}) were then calculated from the kinetic rate constants as: KD (M)=kd/kₐ and t_{1/2} (min)=[ln2/(60*kd)].

[2] = target: T1, recombinant human LAG3 expressed with a …; assay: SPR, mAb captured, 25 C
Method: as §1

[3] = target: T3, recombinant human LAG3 expressed with a …; assay: SPR, mAb captured, 37 C
Method: as §1

[4] = target: T1, recombinant human LAG3 expressed with a …; assay: SPR, mAb captured, 37 C
Method: as §1

[5] = target: T2, human LAG3 expressed on HEK293 cells; assay: electrochemiluminescence cell binding
Method: To investigate the ability of a panel of anti-LAG3 monoclonal antibodies to bind cell-surface expressed LAG3, an in vitro binding assay utilizing human and monkey LAG3 expressing cell lines in an electrochemiluminescence based detection platform [Meso Scale Diagnostics, Rockville, Md.—(MSD)] was developed.
Experiments were carried out according to following procedure. Cells from the three cell lines described above were rinsed once in 1×PBS buffer without Ca²⁺/Mg²⁺ followed by 10-minute incubation at 37° C. with Enzyme Free Cell Dissociation Solution. […] Approximately 10,000 cells per well in the cell-washing buffer were seeded into the 96-well carbon electrode plates (MULTI-ARRAY high bind plate, MSD) and incubated for 1 hour at 37° C. to allow the cells to adhere. Nonspecific binding sites were blocked by 2% BSA (w/v) in PBS for 1 hour at room temperature. […] The plates were then washed to remove the unbound antibodies using an AquaMax2000 plate washer (MDS Analytical Technologies). The plate-bound antibodies were detected with a SULFO-TAG™-conjugated anti-human IgG antibody (MSD) for 1 hour at room temperature. After washes, the plates were developed with the Read Buffer (MSD) according to manufacturer's recommended procedure and the luminescent signals were recorded with a SECTOR Imager 6000 (MSD) instrument. The direct binding signals (in relative light units—RLU) were analyzed as a function of the antibody concentration and the data were fitted with a sigmoidal (four-parameter logistic) dose-response model using Graph Pad Prism™ software. The potency of each antibody was determined by calculating EC₅₀.

Row | Binder | Kd [1] | koff [1] | kon [1] | t1/2 [1] | Kd [2] | koff [2] | kon [2] | t1/2 [2] | Kd [3] | koff [3] | kon [3] | t1/2 [3] | Kd [4] | koff [4] | kon [4] | t1/2 [4] | Ratio of 100 nM antibody binding HEK293-hLAG3 to HEK293 cells [5]
1 | H4sH15462P (antibody, V domains shown, H4sH = human IgG4 Fc with 2 or more amino acid changes as disclosed in US20140243504) VH: QVQLVQSGAEVKKPGASVKVSCKASGYTFTNYYIHWVRQAPGQGLDWMGIINPGGGNTNYAQKFLGRVTMTRDTSTTTVYMELSSLRSEDTAIYYCARENWNSYFDNWGQGTLVTVSS VL: not shown | 6.51 nM | 0.00697 s⁻¹ | 1.07e+06 M⁻¹ s⁻¹ | 1.7 min | 0.814 nM | 0.0019 s⁻¹ | 2.34e+06 M⁻¹ s⁻¹ | 6.1 min | 7.66 nM | 0.00772 s⁻¹ | 1.01e+06 M⁻¹ s⁻¹ | 1.5 min | 0.876 nM | 0.00157 s⁻¹ | 1.8e+06 M⁻¹ s⁻¹ | 7.3 min | 6.8
2 | H4H15462P (antibody, human IgG4, V domains shown, H4H = human IgG4 Fc with S108P hinge mutation) VH: QVQLVQSGAEVKKPGASVKVSCKASGYTFTNYYIHWVRQAPGQGLDWMGIINPGGGNTNYAQKFLGRVTMTRDTSTTTVYMELSSLRSEDTAIYYCARENWNSYFDNWGQGTLVTVSS VL: not shown | 5.75 nM | 0.0054 s⁻¹ | 939000 M⁻¹ s⁻¹ | 2.1 min | 1.01 nM | 0.00203 s⁻¹ | 2.02e+06 M⁻¹ s⁻¹ | 5.7 min | 5.8 nM | 0.00626 s⁻¹ | 1.08e+06 M⁻¹ s⁻¹ | 1.8 min | 0.415 nM | 0.000895 s⁻¹ | 2.16e+06 M⁻¹ s⁻¹ | 12.9 min | 2.3
3 | H4H17828P2 (antibody, human IgG4, V domains shown, H4H = human IgG4 Fc with S108P hinge mutation) VH: EVQLVESGGGLVQPGGSLRLSCAASGFTFKTYAMSWVRQAPGRGLEWVSGISGSGSTSYYADSVKGRFTISRDNYKKTLSLQMNSLRAEDTAVYYCALDIMATVGGLFNNWGQGTLVTVSS VL: not shown | 2.31 nM | 0.00141 s⁻¹ | 612000 M⁻¹ s⁻¹ | 8.2 min | 0.245 nM | 0.00046 s⁻¹ | 1.88e+06 M⁻¹ s⁻¹ | 25.1 min | 1.89 nM | 0.00207 s⁻¹ | 1.1e+06 M⁻¹ s⁻¹ | 5.6 min | 0.415 nM | 0.000718 s⁻¹ | 1.73e+06 M⁻¹ s⁻¹ | 16.1 min | 8.7
4 | H4H17819P (antibody, human IgG4, V domains shown, H4H = human IgG4 Fc with S108P hinge mutation) VH: EVQLVESGGGLVQPGGSLRLSCVASGFTFSLYAMTWVRQVPGKGLEWVSTISGSGGGTYYTDSVKGRFTISRDNSKNTLYLQMNSLRADDTAVFYCTKESTTGTYSYFYGMDVWGQGTTVTVSS VL: DIQMTQSPSSLSASVGDRVTITCRASQTISSYLNWYQQKPGKAPKLLIYAASSLQSGVPSRFSGSGSGTDFTLTLSGLQPEDFATYYCQQSYSTPLTFGGGTKVEIK | 0.391 nM | 0.000443 s⁻¹ | 1.13e+06 M⁻¹ s⁻¹ | 26 min | 0.124 nM | 0.00018 s⁻¹ | 1.45e+06 M⁻¹ s⁻¹ | 64.2 min | 0.552 nM | 0.000876 s⁻¹ | 1.59e+06 M⁻¹ s⁻¹ | 13.2 min | 0.317 nM | 0.000527 s⁻¹ | 1.66e+06 M⁻¹ s⁻¹ | 21.9 min | 22.7
5 | H4H17823P (antibody, human IgG4, V domains shown, H4H = human IgG4 Fc with S108P hinge mutation) VH: EVQLLESGGGLVQPGGSLRLSCAASGFTFRSYAMSWVRQAPGKGLEWVSVISGGGGRTYYTDSVKGRFTISRDNSKSMLYLQMNSLRAEDTAIYYCAKERVTGIDHYYYGVDVWGQGTTVTVSS VL: DIQMTQSPSSLSASVGDRVTITCRASQSISSYLNWYQQKPGKAPKLLIYATSSLQSGVPSRFSGSASGTDFTLAISSLQPEDFATYYCQQSYTTPLTFGGGTKVEIK | 0.429 nM | 0.000447 s⁻¹ | 1.04e+06 M⁻¹ s⁻¹ | 25.8 min | 0.174 nM | 0.000218 s⁻¹ | 1.26e+06 M⁻¹ s⁻¹ | 52.9 min | 0.524 nM | 0.000924 s⁻¹ | 1.76e+06 M⁻¹ s⁻¹ | 12.5 min | 0.437 nM | 0.000585 s⁻¹ | 1.34e+06 M⁻¹ s⁻¹ | 19.7 min | 5.3

Further lines, results first:

Row | Kd [1] | koff [1] | kon [1] | t1/2 [1] | Kd [2] | koff [2] | kon [2] | t1/2 [2] | Kd [3] | koff [3] | kon [3] | t1/2 [3] | Kd [4] | koff [4] | kon [4] | t1/2 [4] | Ratio of 100 nM antibody binding HEK293-hLAG3 to HEK293 cells [5] | Binder
6 | 10.2 nM | 0.00457 s⁻¹ | 450000 M⁻¹ s⁻¹ | 2.5 min | 0.817 nM | 0.000564 s⁻¹ | 691000 M⁻¹ s⁻¹ | 20.5 min | 1.99 nM | 0.00214 s⁻¹ | 1.07e+06 M⁻¹ s⁻¹ | 5.4 min | 0.277 nM | 0.000547 s⁻¹ | 1.98e+06 M⁻¹ s⁻¹ | 21.1 min | 7 | H4H17826P2 (antibody, human IgG4, V domains shown, H4H = human IgG4 Fc with S108P hinge mutation) VH: EVQLVESGGGLVQPGGSLRLSCAASGFTFSSYEMNWVRQAPGKGLEWVSYISSSGNTKDYAGSVKGRVTISRDNAKNLLYLQMNSLRAEDTAVYHCARDGGHYDILTGSMSYYYYALDVWGQGTTVTVSS VL: not shown
7 | 1.97 nM | 0.00037 s⁻¹ | 188000 M⁻¹ s⁻¹ | 31.2 min | ≤ 0.00745 nM | ≤ 1e-05 s⁻¹ | 1.34e+06 M⁻¹ s⁻¹ | ≥ 1160 min | 1.43 nM | 0.00111 s⁻¹ | 774000 M⁻¹ s⁻¹ | 10.4 min | 0.215 nM | 0.000298 s⁻¹ | 1.38e+06 M⁻¹ s⁻¹ | 38.8 min | 6.6 | H4H15483P (antibody, human IgG4, V domains shown, H4H = human IgG4 Fc with S108P hinge mutation) VH: QVQLQQWGAGLLPPSETLSLICAVYGGSFSGYYWSWIRQPPGKGLEWIGEINHRGSTNYNPSLKSRATISVDTSKNQFSLKLSSVTAADTAVYYCSRGEDYYDSSGYSYYFDYWGQGTLVTVSS VL: EIVLTQSPATLSLSPGERATLSCRASQSVSSYLAWYQQKPGQAPRLLIYDASNRATGIPARFSGSGSGTDFTLTISSLEPEDFAVYYCQQRSNWPLTFGGGTKVEIK
